In PMC3656124, “DNA Topoisomerase II Is Involved in Regulation of Cyst Wall Protein Genes and Differentiation in Giardia lamblia” (PLoS Neglected Tropical Diseases, 2013):

T1: Topo IIC (Giardia lamblia, UniProt E2RU90 489-1491)
T1 sequence: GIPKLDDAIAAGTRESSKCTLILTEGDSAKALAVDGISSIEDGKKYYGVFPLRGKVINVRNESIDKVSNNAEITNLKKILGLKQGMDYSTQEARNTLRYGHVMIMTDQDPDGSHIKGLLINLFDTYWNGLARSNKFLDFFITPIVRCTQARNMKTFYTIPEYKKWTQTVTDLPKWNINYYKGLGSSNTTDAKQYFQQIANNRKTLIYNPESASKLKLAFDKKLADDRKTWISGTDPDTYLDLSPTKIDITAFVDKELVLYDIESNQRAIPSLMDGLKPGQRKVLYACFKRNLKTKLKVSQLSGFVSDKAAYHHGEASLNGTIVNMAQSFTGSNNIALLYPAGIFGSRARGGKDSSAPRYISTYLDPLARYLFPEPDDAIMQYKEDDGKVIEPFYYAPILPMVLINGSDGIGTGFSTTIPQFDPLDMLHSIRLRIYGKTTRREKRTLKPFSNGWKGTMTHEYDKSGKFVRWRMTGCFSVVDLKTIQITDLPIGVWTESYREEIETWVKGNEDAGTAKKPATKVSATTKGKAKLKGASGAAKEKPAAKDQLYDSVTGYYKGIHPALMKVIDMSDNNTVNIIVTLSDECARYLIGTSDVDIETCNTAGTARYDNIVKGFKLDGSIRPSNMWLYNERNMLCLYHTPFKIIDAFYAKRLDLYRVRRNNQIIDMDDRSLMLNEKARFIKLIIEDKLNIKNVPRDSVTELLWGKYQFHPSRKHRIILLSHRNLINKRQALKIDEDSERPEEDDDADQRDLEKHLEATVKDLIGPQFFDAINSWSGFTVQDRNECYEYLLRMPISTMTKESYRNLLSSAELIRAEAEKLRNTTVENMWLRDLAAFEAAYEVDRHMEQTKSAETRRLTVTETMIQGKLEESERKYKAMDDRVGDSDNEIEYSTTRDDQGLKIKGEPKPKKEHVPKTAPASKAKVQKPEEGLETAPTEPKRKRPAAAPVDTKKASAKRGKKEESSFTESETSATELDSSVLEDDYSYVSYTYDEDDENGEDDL

T2: Myb2 (Giardia lamblia, UniProt Q8ISM2 1-530)
T2 sequence: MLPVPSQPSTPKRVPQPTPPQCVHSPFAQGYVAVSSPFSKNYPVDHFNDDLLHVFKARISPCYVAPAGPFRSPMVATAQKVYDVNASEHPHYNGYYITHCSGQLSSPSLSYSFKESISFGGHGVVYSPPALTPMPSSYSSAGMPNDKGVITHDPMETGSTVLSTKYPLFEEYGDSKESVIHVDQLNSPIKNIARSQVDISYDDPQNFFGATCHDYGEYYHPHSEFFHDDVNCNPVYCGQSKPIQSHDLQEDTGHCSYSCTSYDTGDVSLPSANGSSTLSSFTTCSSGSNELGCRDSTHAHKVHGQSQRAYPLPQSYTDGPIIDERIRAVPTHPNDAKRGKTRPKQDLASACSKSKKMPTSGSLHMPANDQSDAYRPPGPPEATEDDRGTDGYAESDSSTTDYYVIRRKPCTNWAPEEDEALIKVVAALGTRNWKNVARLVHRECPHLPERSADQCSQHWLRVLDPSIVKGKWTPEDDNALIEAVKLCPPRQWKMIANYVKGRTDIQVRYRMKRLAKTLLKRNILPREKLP


Key:
Topo IIC [1] = target: T1, Topo IIC; assay: competition; 200-fold excess vs labeled IIBS; EMSA: 0.02 pmol 5'-labeled probe, 5 ng protein, 20 ul, 0.5 ug poly(dI-dC), 15 min, room temperature, 6% acrylamide gel; buffer, salt and pH only by citation; details: protein: recombinant; tags: C-terminal V5-His; chain copies: 2
Myb2 = target: T2, Myb2; assay: EMSA; EMSA: 0.02 pmol 5'-labeled probe, 5 ng protein, 20 ul, 0.5 ug poly(dI-dC), 15 min, room temperature, 6% acrylamide gel; buffer, salt and pH only by citation; details: protein: recombinant
[2] = substrate: Nc1ncnc2c1ncn2[C@@H]1O[C@H](COP(=O)(O)OP(=O)(O)OP(=O)(O)O)[C@@H](O)[C@H]1O; assay: coupled pyruvate kinase/lactate dehydrogenase ATPase assay (NADH, A340), Lineweaver-Burk; assay type: biochemical, Giardia duodenalis; details: without DNA, 37 °C, 8 ng Topo II
Topo IIC [3] = target: T1, Topo IIC; assay: EMSA; EMSA: 0.02 pmol 5'-labeled probe, 5 ng protein, 20 ul, 0.5 ug poly(dI-dC), 15 min, room temperature, 6% acrylamide gel; buffer, salt and pH only by citation; details: protein: recombinant; tags: C-terminal V5-His; chain copies: 2

Binder	binding result (Topo IIC [1])	also measured
cwp3-30/+10 (dsDNA) DNA 1: GTCTTTCCCAAAAAATAAGTTACTACTGATATGTTTTCTC DNA 2: GAGAAAACATATCAGTAGTAACTTATTTTTTGGGAAAGAC	binds	
cwp1-90/-46 (dsDNA) DNA 1: CTGGCTAACAGTCTACAGTCTACAATTTACAGTATACAATCTACA DNA 2: TGTAGATTGTATACTGTAAATTGTAGACTGTAGACTGTTAGCCAG		binding result (Myb2; label: 5'-32P for Myb2): binds
poly(A) (dsDNA) DNA 1: AAAAAAAAAAAAAAAAAAAAAAA DNA 2: TTTTTTTTTTTTTTTTTTTTTTT	binds	
Topo II (Giardia lamblia ATCC 50803) (protein) MAQKAKIQRVTGSEHVLLRPDMYVGSVSAAETFLWLYEPGQGLYYTKANIVPGLCKIFDEIIVNASDNKQRDSDRSAEHKMTYIKCSVDVASGAISVENDGVEGLLHFDEKEKMYLPTLAFGILMTSSNYDDTEQRVTGGRNGYGAKLTNIFSTKFTVLLQENGQVFEQTWTDNMKNTKPPRIEDVRDKKKNFIRFSFTPDYMKFGMTSGLDRDHAAYMMRRAVDVAGCNIGLKLIINGTELKIANFEQYARMVYRSINPEITQFYETSKGDTAQVNTNDSDSDLDIKSAAKAKPKTKRTKKTIETNSLLIPVDDLSKPSDWTHDYLKVIPVNKFWDIGLGYTDSGELVQVSFVNSINTTDGGTHVDAILDLIMSQLNDVLIKSFQQDAKNAKKLTRQQLKSCLVLFIRSLVVNPSFDSQTKISLKTDKAALLRSLGSTQAELATLATQLVKRIQEIRPLWNSLRQASYNQAAKLLTKTDGSKTSQLLGIPKLDDAIAAGTRESSKCTLILTEGDSAKALAVDGISSIEDGKKYYGVFPLRGKVINVRNESIDKVSNNAEITNLKKILGLKQGMDYSTQEARNTLRYGHVMIMTDQDPDGSHIKGLLINLFDTYWNGLARSNKFLDFFITPIVRCTQARNMKTFYTIPEYKKWTQTVTDLPKWNINYYKGLGSSNTTDAKQYFQQIANNRKTLIYNPESASKLKLAFDKKLADDRKTWISGTDPDTYLDLSPTKIDITAFVDKELVLYDIESNQRAIPSLMDGLKPGQRKVLYACFKRNLKTKLKVSQLSGFVSDKAAYHHGEASLNGTIVNMAQSFTGSNNIALLYPAGIFGSRARGGKDSSAPRYISTYLDPLARYLFPEPDDAIMQYKEDDGKVIEPFYYAPILPMVLINGSDGIGTGFSTTIPQFDPLDMLHSIRLRIYGKTTRREKRTLKPFSNGWKGTMTHEYDKSGKFVRWRMTGCFSVVDLKTIQITDLPIGVWTESYREEIETWVKGNEDAGTAKKPATKVSATTKGKAKLKGASGAAKEKPAAKDQLYDSVTGYYKGIHPALMKVIDMSDNNTVNIIVTLSDECARYLIGTSDVDIETCNTAGTARYDNIVKGFKLDGSIRPSNMWLYNERNMLCLYHTPFKIIDAFYAKRLDLYRVRRNNQIIDMDDRSLMLNEKARFIKLIIEDKLNIKNVPRDSVTELLWGKYQFHPSRKHRIILLSHRNLINKRQALKIDEDSERPEEDDDADQRDLEKHLEATVKDLIGPQFFDAINSWSGFTVQDRNECYEYLLRMPISTMTKESYRNLLSSAELIRAEAEKLRNTTVENMWLRDLAAFEAAYEVDRHMEQTKSAETRRLTVTETMIQGKLEESERKYKAMDDRVGDSDNEIEYSTTRDDQGLKIKGEPKPKKEHVPKTAPASKAKVQKPEEGLETAPTEPKRKRPAAAPVDTKKASAKRGKKEESSFTESETSATELDSSVLEDDYSYVSYTYDEDDENGEDDL		Km [2]: 0.21 mM
poly(A) with TT insertion (dsDNA) DNA 1: AAAAAAAAAAATTAAAAAAAAAA DNA 2: TTTTTTTTTTAATTTTTTTTTTT	binds	
18S-60/-31 (dsDNA) DNA 1: CCGTGCCAGGCGGCGGCCCCCGCGCAGGGA DNA 2: TCCCTGCGCGGGGGCCGCCGCCTGGCACGG		binding result (Topo IIC [3]): no binding
poly(A) with TC insertion (dsDNA) DNA 1: AAAAAAAAAAATCAAAAAAAAAA DNA 2: TTTTTTTTTTGATTTTTTTTTTT	binds	
cwp2-30/+8 (dsDNA) DNA 1: CAGCAGCTCAACAGTGGCTGGGAAAATAAAATGATCGC DNA 2: GCGATCATTTTATTTTCCCAGCCACTGTTGAGCTGCTG	binds	
ran-51/-20 (dsDNA) DNA 1: TAAAATAAATTAAATCGAAATTAAAACTTTAA DNA 2: TTAAAGTTTTAATTTCGATTTAATTTATTTTA	binds	
topo II-85/-40 (dsDNA) DNA 1: TGTAAATCAATATTATCGTCCTACAGCTGCTAGCTTGGTGACAGGA DNA 2: TCCTGTCACCAAGCTAGCAGCTGTAGGACGATAATATTGATTTACA		binding result (Myb2; label: 5'-32P): binds
18S-30/-1 (dsDNA) DNA 1: GGCGCCCGGCCCGCGGCGCCCGCGCCCGGC DNA 2: GCCGGGCGCGGGCGCCGCGGGCCGGGCGCC		binding result (Topo IIC [3]): no binding
cwp1-45/-1 (dsDNA) DNA 1: GTTTACAACTCTCAGATCAAGAAACACAGAAATAAAATATCAGGG DNA 2: CCCTGATATTTTATTTCTGTGTTTCTTGATCTGAGAGTTGTAAAC		binding result (Topo IIC [3]): binds
